How the values were obtained:
[1] = target: microtubules (MTs) polymerized from porcine brain tubulin (pig (porcine brains)) (UniProt Q2XVP4); experiment: co-sedimentation; GAS2 proteins at different concentrations with Taxol-stabilized MTs in BRB80 with 1 mM GTP, room temperature, 20 min; 186,000 × g, 10 min, 25 °C; SDS-PAGE, one site-specific binding fit
[2] = target: full-length GAS2 (GAS2-FL (1–314)) (mouse) (UniProt P11862); experiment: SEC; Superdex 75 HR 10/300; 30 mM Tris-HCl pH 8.0, 300 mM KCl, 100 μM ZnCl2, 0.1% β-ME; molecular weight from a calibration with BSA, carbonic anhydrase and cytochrome c

Substance	Kd [1] [µM]	stoichiometry N [2]
GAS2-GAR G255A (from UniProt P11862 198-314) (domain or fragment)	2.69	
GAS2-GAR G255E (from UniProt P11862 198-314) (domain or fragment)	9.6	
GAS2-GAR K266E (from UniProt P11862 198-314) (domain or fragment)	10.6	
GAS2-GAR R242E (from UniProt P11862 198-314) (domain or fragment)	5	
GAS2-GAR R252E (from UniProt P11862 198-314) (domain or fragment)	47	
GAS2-GAR W257E (from UniProt P11862 198-314) (domain or fragment)	27	
GAS2-GAR domain (residues 198–314) (from UniProt P11862 198-314) (domain or fragment)	0.69	
full-length GAS2 (GAS2-FL (1–314)) (from UniProt P11862 1-314) (natural protein)		2

— article PMC12084551
